Source: paper PMC8894450, “Structural basis of leukotriene B4 receptor 1 activation” (Nature Communications, 2022)

Molecular target: T1, human dominant-negative Gαi1 (S47N, G203A, A326S and E245A) (human, UniProt P63096 1-354, S47N | G203A | A326S | E245A)
T1 construct: The alpha-helical domain had no clear density in the map; also called Gα subunit; Gαi subunit; source: Sf9 cells co-infected with baculoviruses encoding each component; co-purified with the BLT1/Gi complex
Assay: cryo-EM structure; single-particle cryo-EM of the LTB4-bound BLT1/Gi complex (with scFv16, NanoBiT tether); components co-expressed in Sf9, complex purified on amylose, TEV cut, gel filtration in 25 mM Hepes pH 7.5, 150 mM NaCl, LMNG/GDN/CHS; LTB4 300 nM throughout
Conditions: both partners purified

T1 sequence (P63096 whole entry S47N/G203A/E245A/A326S, the tested form may be a part): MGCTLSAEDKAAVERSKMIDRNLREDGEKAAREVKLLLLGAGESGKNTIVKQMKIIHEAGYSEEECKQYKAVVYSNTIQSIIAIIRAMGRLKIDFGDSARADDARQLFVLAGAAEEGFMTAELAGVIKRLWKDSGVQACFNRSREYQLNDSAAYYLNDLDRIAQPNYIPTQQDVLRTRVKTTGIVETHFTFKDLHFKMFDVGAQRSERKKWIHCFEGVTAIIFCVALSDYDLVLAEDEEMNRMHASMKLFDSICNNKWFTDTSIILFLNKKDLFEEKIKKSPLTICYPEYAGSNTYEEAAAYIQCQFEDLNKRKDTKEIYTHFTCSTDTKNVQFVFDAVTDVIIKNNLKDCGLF

B1: engineered human leukotriene B4 receptor 1 (BLT1) with 4 thermostabilizing mutations and a C-terminal LgBiT fusion (receptor)
chain: MNTTSSAAPPSLGVEFISLLAIILLSVALAVGLPGNSFVVWSILKRMQKRSVTALMVLNLALADLAVLLTAPFFLHFLAQGTWSFGLAGCRLCHYVCGVSMYASVWLITAMSLDRSLAVARPFVSQKLRTKAMARRVLAGIWVLSFLLATPVLAYRTVVPWKTNMSLCFPRYPSEGHRAFHLIFEAVTGFLLPFLIVVASYSDIGRRLQARRFRRSRRTGRLVVLIILTFAAFWLPYHVVNLAEAGRALAGQAAGLGLVGKRLSLARNVLIALAFLSSSVNPVLYAFAGGGLLRSAGVGFVAKLLEGTGAEASSTRRGGSLGQTARSGPAALEPGPSESLTASSPLKLNELN
notes: human leukotriene B4 receptor 1 (BLT1), codon-optimized gene; model lacks the first 14 residues and the C-tail after residue 301; A TEV site stands between LgBiT and 2x MBP; LgBiT on the receptor pairs with HiBiT on Gbeta1 (NanoBiT tethering strategy); also called BLT1R; the receptor; source: Sf9 cells co-infected with baculoviruses encoding each component; complex purified (amylose column, TEV …)
Question: Does B1 bind?
Answer: Result: binds
